In US20080299108A1, “Peptides for Diagnostic and Therapeutic Methods for Celiac Sprue” (priority 2005, published 2008):
“Also recorded” adds a separate entry of the source. Where no end group is shown, it is not given here.

Legend:
HLA-DQ2 = target: T1, HLA-DQ2 (Homo sapiens, UniProt P01909+P01920, A45G/A70V/D89A/E106A/E77G/E98D/H199R/L107V/N214S/P84L/P87L/T103K/T109R/T172A/T60S/V78E/V99I/Y58L/Y62S/Y69I/Y79F); test: Peptide exchange assay (HPSEC, fluorescein-conjugated peptides); format: binding; settings: for binding maximum (DQ2 bound peptide as percentage of total peptide): pH 5.5, 37° C., 45 h, 4.7 μM DQ2, 0.18 μM peptide; for maximum occupancy (DQ2 bound peptide): pH 7.3, 45 h; for DQ2 binding affinity: pH 5 and pH 7
T1 construct: the soluble extracellular domains of the DQ2 α and β chains were co-expressed; Fos leucine zipper, joined through a factor Xa site (C); gliadin peptide […]; Jun leucine zipper, joined through a factor Xa site (C); made in house; host or cells: High Five insect cells, pAcAB3 baculovirus
Experimental: FIG. 8. Equilibrium occupancy of individual peptides listed in Table 1 in the DQ2 binding pocket, as measured by peptide exchange assays. Measurements were made at (A) pH 5.5 and (B) pH 7.3. 4.7 μM DQ2 was mixed with 0.18 μM fluorescein-conjugated peptide at 37° C. for 45 h, and the abundance of DQ2 bound peptide was calculated as a percentage of total peptide.
DQ2 expression and purification. Soluble DQ2 molecules were expressed and purified as previously described. Briefly, the soluble extracellular domains of the DQ2 α and β chains were co-expressed in High Five insect cells using a pAcAB3 baculovirus expression system, and were affinity-purified using the anti-DQ2 mAb 2.12.E11. […] A complementary Fos/Jun leucine zipper pair was engineered at the C-terminal ends of α and β chains, respectively, with intervening factor Xa proteolysis sites, to increase the heterodimer stability during protein expression.
The concentration of HLA-DQ2 was determined by UV spectrophotometry at 280 nm using the absorption coefficient factor 75,700 cm^−1M^−1 as calculated from the contents of tyrosine, tryptophan and cystine in the DQ2 sequence (22). Prior to use in binding experiments with exogenous ligands, the DQ2-ligand fusion protein was first treated with ˜2% w/w thrombin in pH 7.3 PBS at 0° C. for 2 h.
Peptide exchange assay. For peptide exchange experiments, the DQ2 heterodimer purified as described above was incubated with fluorescein-conjugated ligands in a 25:1 ratio (i.e. 4.7 μM DQ2 with 0.18 μM fluorescent peptide). Incubations were performed at 37° C. in a 1:1 mixture of PBS buffer (10 mM Pi, 150 mM NaCl, pH 7.3, supplemented with 0.02% NaN3) and McIlvaine's citrate-phosphate buffers (pH 5 or pH 7) such that the final pH was either 5.5 or 7.3, respectively. Peptide binding was measured by high performance size exclusion chromatography (HPSEC) (17). 1 μl of reaction mixture was diluted into 14 μl PBS. 12.5 μl of the diluted material was injected onto a BioSep 3000 size exclusion column (Phenomenex), and eluted with PBS buffer at 1 ml/min. The DQ2-peptide complex eluted at 8.5 min, with free peptides emerging […] later. The fluorescence signal was recorded using an in-line Shimadzu RA35 fluorescent detector with excitation wavelength set at 495 nm and emission detection set at 520 nm. Peak areas corresponding to the DQ2-peptide complex and the free peptide were used to calculate the fractional yield of the DQ2-fluoresceinated peptide complex.

[1] = tested on: clonal T cell line that recognizes the αII epitope; test: T cell proliferation, clonal T cell line (FIG. 9B); format: cell-based, human; settings: paraformaldehyde-fixed DQ2 antigen presenting cells
Experimental: (§1) FIG. 9A-9B. […] Paraformaldehyde-fixed DQ2 cells were used as antigen presenting cells. (A) Proliferation of a polyclonal T cell line that recognizes all α epitopes. (B) Proliferation of a clonal T cell line that recognizes the αII epitope (peptide 3).
(§2) T cell proliferation assays. The DQ2 homozygous […] cell line (LCL) VAVY cells were irradiated with 12,000 rads of γ-irradiation or fixed with 1% paraformaldehyde for 10 minutes as indicated, and incubated with the appropriate peptides overnight in media containing 10% fetal bovine serum, 2% human serum, penicillin and streptomycin at a cell density of 2×10^6 cells/ml in 96-well plates. The next day, the volume was doubled to yield a cell density of 1×10^6 cells/ml, 50 μl of which was placed into a U-bottom 96-well plate. An equal volume of T-cells (50 μl of 1×10^6 cells/ml) was added to each well, and cells were incubated at 37° C. and 5% CO2 for 48 h, at which point 0.5 μCi/well of [methyl-^3H] thymidine (Amersham, TRK120) was added. […] After thawing, incorporated thymidine was collected on a filter mat (Wallac, 1205-401) using a Tomtec cell harvester, and counted using a Wallac 1205 Betaplate liquid scintillation counter.
(§3) To test this hypothesis, we synthesized the 20-mer peptide 5, and quantitatively compared its ability to bind DQ2 in peptide exchange and dissociation assays. […]

[2] = tested on: polyclonal T cell line that recognizes all α epitopes; test: T cell proliferation, polyclonal T cell line (FIG. 9A); format: cell-based, human; settings: paraformaldehyde-fixed DQ2 antigen presenting cells
Experimental: as §1, §2, §3

[3] = tested on: rat brush border membrane (BBM) protein; test: Rat brush border membrane (BBM) digestion of gliadin peptides, LC-MS; format: in vitro ADME; settings: 27 ng/μl rat BBM protein
Experimental: To dissect this complex process, liquid chromatography coupled mass spectroscopy analysis (LC-MS-MS) was utilized to investigate the pathways and associated kinetics of hydrolysis of immunodominant gliadin peptides treated with rat BBM preparations. Because the rodent is an excellent small animal model for human intestinal structure and function, rat BBM was chosen as a suitable model system for these studies.
BBM fractions were prepared from rat small intestinal mucosa as described by Ahnen et al. (1982) J. Biol. Chem. 257, 12129-35. […] No proline aminopeptidase (EC 3.4.11.5) or prolyl endopeptidase activity (PEP, EC 3.4.21.26) activity was detectable (<5 μU/μg). Alkaline phosphatase and sucrase were used as control BBM enzymes with activities of 66 μU/μg and 350 μU/μg, respectively.
BBM fractions were partially purified from the small intestinal mucosa of adult female rats maintained on an ad libitum diet of wheat-based standard rodent chow. Total protein content was determined by a modified method of Lowry with BSA as a standard. Alkaline phosphatase activity was determined with nitrophenyl phosphate. Sucrase activity was measured using a coupled glucose assay.
Proteolysis with the BBM preparation was investigated using the peptide (SEQ ID NO:1) (SEQ ID NO:1) […], a product of chymotryptic digestion of α-9 gliadin (Arentz-Hansen et al. (2000) J. Exp. Med. 191, 603-12). […] It was subjected to BBM digestion, followed by LC-MS-MS analysis. A standard 50 μl digestion mixture contained 100 μM of synthetic peptide, 10 μM tryptophan and Cbz-tryptophan as internal standards, and resuspended BBM preparations with a final protein content of 27 ng/μl and exogenous proteins, as indicated, in phosphate buffered saline. After incubation at 37° C. for the indicated time, the enzymes were inactivated by heating to 95° C. for 3 minutes. The reaction mixtures were analyzed by LC-MS (SpectraSystem, ThermoFinnigan) using a C18 reversed phase column (Vydac 218TP5215, 2.1×150 mm) with water:acetonitrile:formic acid (0.1%):trifluoroacetic acid (0.025%) as the mobile phase (flow: 0.2 ml/min) and a gradient of 10% acetonitrile for 3 minutes, 10-20% for 3 minutes, 20-25% for 21 minutes followed by a 95% wash. Peptide fragments in the mass range of m/z=300-2000 were detected by electrospray ionization mass spectroscopy using a LCQ ion trap, and their identities were confirmed by MSMS fragmentation patterns.

[4] = tested on: rat small intestinal brush-border membrane (BBM) enzymes; test: Rat BBM digestion of peptides from α2-gliadin (12 ng/μl BBM protein); format: in vitro ADME
Experimental: BBM fractions were prepared from rat small intestinal mucosa.

[5] = target: 33-mer α2-gliadin peptide (non-deamidated), residues 57-89
[6] = tested on: pepsin, trypsin, chymotrypsin, elastase and carboxypeptidase
[7] = target: soluble HLA-DQ2 heterodimer (extracellular domains of the DQ2 α and β chains with Fos/Jun leucine zippers), thrombin-treated (human); test: peptide exchange kinetics, HPSEC
[8] = target: soluble HLA-DQ2 heterodimer (extracellular domains of the DQ2 α and β chains with Fos/Jun leucine zippers), thrombin-treated (human); test: peptide exchange kinetics, HPSEC, pH 7.3

With PQPELPYPQ [Peptide 3] the “binding maximum (DQ2 bound peptide as percentage of total peptide)” value (HLA-DQ2) was 7%.

“LQLQPFPQPELPYPQPELPYPQPELPYPQPQPF [Peptide 1]” was tested, and the “time to half maximal DQ2 occupancy” value (HLA-DQ2; exchange kinetics) was ~8 h, the “maximum occupancy (DQ2 bound peptide)” value (HLA-DQ2) was 28% and the “T cell stimulatory capacity” value [1] was “comparable T cell stimulatory capacity that exceeds that of peptide 3”. The “T cell stimulatory characteristics” value [2] was “substantially more potent T cell antigens than the minimal αII epitope peptide 3”.

For PQPELPYPQPELPY [Peptide 6], the “DQ2 binding affinity” value (HLA-DQ2) was “considerably lower affinity for DQ2 than peptide 5”.

With PQPQLPYPQPQLP the “stability toward BBM digestion” value [3] was “highly resistant to further digestion”.

“LQLQPFPQPELPYPQPEKPY [Peptide 18, L18K analogue of 20-mer peptide 5]” was tested, and the “DQ2 binding affinity” value (HLA-DQ2) was “bound poorly to DQ2”.

For PFPQPELPY [Peptide 2], the “binding maximum (DQ2 bound peptide as percentage of total peptide)” value (HLA-DQ2) was “less than 1%” and the “maximum occupancy (DQ2 bound peptide)” value (HLA-DQ2) was “undetectable”.

RRLIEDNEYTARG was tested, and the “clearance of digestive intermediates” value [3] was “cleared completely within one hour” and the “apparent half time of disappearance of the parent peptide (t1/2)” value ([3]; 100 μM peptide, 37° C.) was 10 min.

For “LQLQPFPQPQLPYPQPELPYPQPELPYPQPQPF [Peptide 16]”, the “DQ2 binding affinity” value (HLA-DQ2) was “approximates the 33-mer binding characteristics”.

For LQLQPFPQPELPYPQPELPY [Peptide 5], the “DQ2 binding affinity” value (HLA-DQ2) was “comparable to the 33-mer peptide 1 in all in vitro assays; also recorded: binds to DQ2 equally well as the 33-mer peptide 1”, the “T cell stimulatory capacity” value [1] was “comparable T cell stimulatory capacity that exceeds that of peptide 3” and the “T cell stimulatory characteristics” value [2] was “substantially more potent T cell antigens than the minimal αII epitope peptide 3”.

In the case of “LQLQPFPQPELPYPQPQLPYPQPELPYPQPQPF [Peptide 15]”, the “DQ2 binding affinity” value (HLA-DQ2) is reported as “significantly enhances affinity relative to Q10E (11)”.

For “LQLQPFPQPELPYPQPQLPYPQPQLPYPQPQPF [Peptide 11]”, the “DQ2 binding affinity” value (HLA-DQ2) was “higher affinity for DQ2 than either Q17E (12) or Q24E (13)”.

For “LQLQPFPQPELPYPQPELPYPQPQLPYPQPQPF [Peptide 14]”, the “DQ2 binding affinity” value (HLA-DQ2) was “significantly enhances affinity relative to Q10E (11)”.

Work on WQIPEQSR yielded a half-life of disappearance [4] of ~60 min.

With “LQLQPFPQPEKPYPQPELPY [Peptide 17, L11K analogue of 20-mer peptide 5]” the “DQ2 binding affinity” value (HLA-DQ2) was “bound poorly to DQ2”.

B1: human tissue transglutaminase (tTGase) (protein)
chain: AEELVLERCDLELETNGRDHHTADLCREKLVVRRGQPFWLTLHFEGRNYEASVDSLTFSVVTGPAPSQEAGTKARFPLRDAVEEGDWTATVVDQQDCTLSLQLTTPANAPIGLYRLSLEASTGYQGSSFVLGHFILLFNAWCPADAVYLDSEEERQEYVLTQQGFIYQGSAKFIKNIPWNFGQFEDGILDICLILLDVNPKFLKNAGRDCSRRSSPVYVGRVVSGMVNCNDDQGVLLGRWDNNYGDGVSPMSWIGSVDILRRWKNHGCQRVKYGQCWVFAAVACTVLRCLGIPTRVVTNYNSAHDQNSNLLIEYFRNEFGEIQGDKSEMIWNFHCWVESWMTRPDLQPGYEGWQALDPTPQEKSEGTYCCGPVPVRAIKEGDLSTKYDAPFVFAEVNADVVDWIQQDDGSVHKSINRSLIVGLKISTKSVGRDEREDITHTYKYPEGSSEEREAFTRANHLNKLAEKEETGMAMRIRVGQSMNMGSDFDVFAHITNNTAEEYVCRLLLCARTVSYNGILGPECGTKYLLNLNLEPFSEKSVPLCILYEKYRDCLTESNLIKVRALLVEPVINSYLLAERDLYLENPEIKIRILGEPKQKRKLVAEVSLQNPLPVALEGCTFTVEGAGLTEEQKTVEIPDPVEAGEEVKVRMDLLPLHMGLHKLVVNFESDKLKAVKGFRNVIIGPA
B1 was tested, and the “kcat/KM (deamidation by tTGase)” value [5] was “kcat/KM=440 min-1 mM-1”.

B2: myoglobin: another common dietary protein (protein, UniProt P02144 2-154, looked up)
Myoglobin: GLSDGEWQLVLNVWGKVEADIPGHGQEVLIRLFKGHPETLEKFDKFKHLKSEDEMKASEDLKKHGATVLTALGGILKKKGHHEAEIKPLAQSHATKHKIPVKYLEFISECIIQVLQSKHPGDFGADAQGAMNKALELFRKDMASNYKELGFQG
For B2, the “stability toward gastric and pancreatic proteases” value [6] was “rapidly broken down into much smaller products”.

{5(6)‑carboxyfluorescein}-LQLQPFPQPELPYPQPELPYPQPELPYPQPQPF [33-mer peptide 1 (deamidated 33-mer from α2-gliadin), fluorescein-conjugated] showed a time to half maximal DQ2 occupancy [7] of 8 h and a maximum occupancy [8] of 28%.
